Measurements: the supplement of paper PMC9112550, “Optimization of the antimicrobial peptide Bac7 by deep mutational scanning” (BMC Biology, 2022)

tested on: Escherichia coli TOP10; experiment: shrunken log2 fold change of peptide-encoding DNA abundance (4.5 h post-induction vs induction); higher = less antimicrobial activity (less host growth inhibition); conditions: time post-induction: 4.5 h; library: site-saturation at positions 5, 18, 19, 20
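Further: peptides expressed intracellularly from a pBAD plasmid library in pooled LB shake-flask culture, induced with 0.3% L-arabinose, DNA abundance read by NGS, three biological replicates, DESeq2 with apeglm shrinkage.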

| Sequence | shrunken log2 fold change |
| --- | --- |
| RRIRSRPPRLPRPRPRPWLFPRP | -0.183 |
| RRIRPRPPRLPRPRPRPDHKPRP | -0.334 |
| RRIRLRPPRLPRPRPRPPMWPRP | 0.26 |
| RRIRMRPPRLPRPRPRPSQCPRP | -0.112 |
| RRIRQRPPRLPRPRPRPSTNPRP | -0.364 |
| RRIRLRPPRLPRPRPRPTHIPRP | -0.148 |
| RRIRWRPPRLPRPRPRPEMEPRP | 0.451 |
| RRIRYRPPRLPRPRPRPVYWPRP | -0.763 |
| RRIRCRPPRLPRPRPRPQPSPRP | 0.228 |
| RRIRNRPPRLPRPRPRPEGQPRP | -0.00174 |
| RRIRNRPPRLPRPRPRPKCHPRP | 0.0244 |
| RRIRCRPPRLPRPRPRPFVMPRP | -0.153 |
| RRIRDRPPRLPRPRPRPGQPPRP | -0.181 |
| RRIRHRPPRLPRPRPRPWWWPRP | 0.0221 |
| RRIRHRPPRLPRPRPRPNVPPRP | -0.0223 |
| RRIRVRPPRLPRPRPRPFDRPRP | 0.121 |
| RRIRHRPPRLPRPRPRPNNSPRP | -1.11 |
| RRIRKRPPRLPRPRPRPLPNPRP | -0.0104 |
| RRIRTRPPRLPRPRPRPDMMPRP | -0.182 |
| RRIRIRPPRLPRPRPRPCLNPRP | -0.0496 |
| RRIRVRPPRLPRPRPRPSFWPRP | -0.0205 |
| RRIRIRPPRLPRPRPRPGAYPRP | -0.33 |

| Sequence | shrunken log2 fold change |
| --- | --- |
| RRIRWRPPRLPRPRPRPVCFPRP | 0.376 |
| RRIRTRPPRLPRPRPRPEPLPRP | 0.0272 |
| RRIRVRPPRLPRPRPRPQFMPRP | -0.232 |
| RRIRKRPPRLPRPRPRPQWDPRP | 0.00929 |
| RRIRQRPPRLPRPRPRPQNMPRP | -0.506 |
| RRIRMRPPRLPRPRPRPTHGPRP | 0.188 |
| RRIRKRPPRLPRPRPRPRTWPRP | 0.124 |
| RRIRRRPPRLPRPRPRPKWLPRP | 0.269 |
| RRIRMRPPRLPRPRPRPCFFPRP | 0.16 |
| RRIRSRPPRLPRPRPRPMRSPRP | 0.0162 |
| RRIRMRPPRLPRPRPRPGFRPRP | 0.525 |
| RRIRNRPPRLPRPRPRPPVKPRP | -0.123 |
| RRIRHRPPRLPRPRPRPHPHPRP | -0.19 |
| RRIRPRPPRLPRPRPRPTDEPRP | -0.128 |
| RRIRIRPPRLPRPRPRPSTTPRP | -0.189 |
| RRIRSRPPRLPRPRPRPYGMPRP | -0.0661 |
| RRIRPRPPRLPRPRPRPDIKPRP | -0.317 |
| RRIRRRPPRLPRPRPRPYSSPRP | -0.0612 |
| RRIRARPPRLPRPRPRPMYLPRP | -0.506 |
| RRIRGRPPRLPRPRPRPWYYPRP | -0.148 |
| RRIRKRPPRLPRPRPRPYLGPRP | -0.0981 |
| RRIRERPPRLPRPRPRPHTRPRP | -0.0821 |

| Sequence | shrunken log2 fold change |
| --- | --- |
| RRIRWRPPRLPRPRPRPMDKPRP | -0.194 |
| RRIRCRPPRLPRPRPRPYQNPRP | -1.1 |
| RRIRHRPPRLPRPRPRPYLFPRP | -0.523 |
| RRIRYRPPRLPRPRPRPNPTPRP | 0.0161 |
| RRIRERPPRLPRPRPRPCSYPRP | -0.0141 |
| RRIRIRPPRLPRPRPRPETTPRP | -0.0691 |
| RRIRFRPPRLPRPRPRPHKDPRP | -0.709 |
| RRIRHRPPRLPRPRPRPEMWPRP | 0.263 |
| RRIRMRPPRLPRPRPRPEHGPRP | 0.406 |
| RRIRGRPPRLPRPRPRPLPCPRP | 0.51 |
| RRIRQRPPRLPRPRPRPWLRPRP | -0.112 |
| RRIRERPPRLPRPRPRPQFKPRP | -0.444 |
| RRIRPRPPRLPRPRPRPYVMPRP | -0.706 |
| RRIRMRPPRLPRPRPRPNVSPRP | 0.141 |
| RRIRNRPPRLPRPRPRPRHFPRP | -0.201 |
| RRIRARPPRLPRPRPRPITPPRP | -0.0533 |
| RRIRWRPPRLPRPRPRPWASPRP | 0.014 |
| RRIRVRPPRLPRPRPRPFLWPRP | -0.698 |
| RRIRHRPPRLPRPRPRPDRQPRP | -0.135 |
| RRIRFRPPRLPRPRPRPPEIPRP | -0.204 |
| RRIRGRPPRLPRPRPRPNDQPRP | 0.265 |
| RRIRPRPPRLPRPRPRPEIPPRP | 0.0702 |

| Sequence | shrunken log2 fold change |
| --- | --- |
| RRIRYRPPRLPRPRPRPFKEPRP | -0.146 |
| RRIRIRPPRLPRPRPRPSMTPRP | -0.43 |
| RRIRQRPPRLPRPRPRPMPPPRP | 0.517 |
| RRIRQRPPRLPRPRPRPHKNPRP | -0.194 |
| RRIRGRPPRLPRPRPRPSMWPRP | 0.291 |
| RRIRARPPRLPRPRPRPCSYPRP | -0.0595 |
| RRIRKRPPRLPRPRPRPTCPPRP | 0.0404 |
| RRIRHRPPRLPRPRPRPMRMPRP | -0.00476 |
| RRIRKRPPRLPRPRPRPEKLPRP | 0.103 |
| RRIRHRPPRLPRPRPRPAPIPRP | 0.31 |
| RRIRLRPPRLPRPRPRPWAFPRP | 0.00977 |
| RRIRARPPRLPRPRPRPWRTPRP | 0.14 |
| RRIRWRPPRLPRPRPRPDWMPRP | 0.212 |
| RRIRWRPPRLPRPRPRPWKCPRP | -0.01 |
| RRIRSRPPRLPRPRPRPCIHPRP | -1.37 |
| RRIRMRPPRLPRPRPRPPQQPRP | 0.945 |
| RRIRWRPPRLPRPRPRPGIYPRP | -0.137 |
| RRIRYRPPRLPRPRPRPPGEPRP | 0.0198 |
| RRIRKRPPRLPRPRPRPCQEPRP | -0.0342 |
| RRIRCRPPRLPRPRPRPYIKPRP | -0.791 |
| RRIRWRPPRLPRPRPRPDWRPRP | -0.0316 |
| RRIRKRPPRLPRPRPRPTYYPRP | -0.442 |

| Sequence | shrunken log2 fold change |
| --- | --- |
| RRIRDRPPRLPRPRPRPGTVPRP | 0.118 |
| RRIRTRPPRLPRPRPRPSPSPRP | -0.0444 |
| RRIRMRPPRLPRPRPRPQKFPRP | -0.000921 |
| RRIRYRPPRLPRPRPRPGGCPRP | 0.0169 |
| RRIRWRPPRLPRPRPRPKDDPRP | 0.553 |
| RRIRMRPPRLPRPRPRPAIWPRP | 1.36 |
| RRIRERPPRLPRPRPRPLWVPRP | -0.109 |
| RRIRRRPPRLPRPRPRPIMEPRP | 0.161 |
| RRIRARPPRLPRPRPRPNDTPRP | -0.283 |
| RRIRYRPPRLPRPRPRPEIPPRP | 0.0336 |
| RRIRNRPPRLPRPRPRPSTSPRP | -0.36 |
| RRIRKRPPRLPRPRPRPTLNPRP | 0.505 |
| RRIRWRPPRLPRPRPRPSQSPRP | -0.0797 |
| RRIRPRPPRLPRPRPRPDECPRP | -0.041 |
| RRIRFRPPRLPRPRPRPVIYPRP | -0.588 |
| RRIRPRPPRLPRPRPRPLDPPRP | 0.201 |
| RRIRQRPPRLPRPRPRPTEPPRP | 0.00378 |
| RRIRQRPPRLPRPRPRPYIAPRP | 0.0259 |
| RRIRYRPPRLPRPRPRPFCCPRP | -0.509 |
| RRIRFRPPRLPRPRPRPSQCPRP | 0.153 |
| RRIRNRPPRLPRPRPRPTVVPRP | 0.229 |
